Molecular target: poplar cellulose synthase isoform-8 (CesA8) from hybrid aspen (hybrid aspen (poplar))
Test: cryo-EM structure; purified CesA8 in 0.02% GDN, incubated with 20 mM MgCl2 and 5 mM UDP or UDP-Glc for 30 min on ice before grid preparation; non-uniform refinement with C3 symmetry

poplar cellulose synthase isoform-8 (CesA8) from hybrid aspen (enzyme)
stoichiometry N: 3

Reference: PMC10592267
